These are literature values, as cited in article PMC9038201.

For this data set, the target named is ubiquitin (Homo sapiens) (UniProt P0CG47).

With PLpro (from UniProt P0DTD1), the Kd (as a rule, the concentration at which binding is half-saturated) was 120 µM.
